Assay results taken from patent US20230151091A1 (NEW YORK UNIVERSITY, published 2023).
Changes are numbered by the printed parent chain. Numbers in names are those of the source.

Tests used:
mouse MuSK [1] = target: T1, mouse MuSK (mouse, UniProt Q61006 22-494, limits assumed); experiment: Biacore, MuSK on chip (200RU), mAb dilution series
T1 construct: Coated on ELISA plates or on the Biacore chip; also called full length mouse MuSK; mouse MuSK (in house produced in HEK293 cells)
T1 sequence (looked up): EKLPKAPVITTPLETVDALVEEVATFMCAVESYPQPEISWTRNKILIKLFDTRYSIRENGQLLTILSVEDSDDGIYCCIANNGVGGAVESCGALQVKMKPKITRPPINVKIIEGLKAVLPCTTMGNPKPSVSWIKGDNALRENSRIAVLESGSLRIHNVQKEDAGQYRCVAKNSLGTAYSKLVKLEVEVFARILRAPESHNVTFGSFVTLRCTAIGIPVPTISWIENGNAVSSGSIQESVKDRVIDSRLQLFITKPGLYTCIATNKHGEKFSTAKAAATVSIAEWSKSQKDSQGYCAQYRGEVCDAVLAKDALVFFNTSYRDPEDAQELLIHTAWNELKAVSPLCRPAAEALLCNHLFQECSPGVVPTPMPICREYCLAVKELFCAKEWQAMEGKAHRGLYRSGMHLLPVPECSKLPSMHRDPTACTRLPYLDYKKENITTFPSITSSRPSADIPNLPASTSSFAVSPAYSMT
Source text: (§1) For affinity determination, a CMS chip was coated with either human or mouse MuSK (200RU) and a dilution series of the antibodies (mAbs and Fabs) was applied in order to be able to calculate the affinity.

human MuSK = target: T2, human MuSK (human, UniProt O15146 24-495); experiment: Biacore, MuSK on chip (200RU), mAb dilution series
T2 construct: Recombinant protein coated on ELISA plates (R&D Systems cat. 10189-MK) or on the Biacore chip; also called human muscle-specific tyrosine protein kinase; full length human MuSK
T2 sequence: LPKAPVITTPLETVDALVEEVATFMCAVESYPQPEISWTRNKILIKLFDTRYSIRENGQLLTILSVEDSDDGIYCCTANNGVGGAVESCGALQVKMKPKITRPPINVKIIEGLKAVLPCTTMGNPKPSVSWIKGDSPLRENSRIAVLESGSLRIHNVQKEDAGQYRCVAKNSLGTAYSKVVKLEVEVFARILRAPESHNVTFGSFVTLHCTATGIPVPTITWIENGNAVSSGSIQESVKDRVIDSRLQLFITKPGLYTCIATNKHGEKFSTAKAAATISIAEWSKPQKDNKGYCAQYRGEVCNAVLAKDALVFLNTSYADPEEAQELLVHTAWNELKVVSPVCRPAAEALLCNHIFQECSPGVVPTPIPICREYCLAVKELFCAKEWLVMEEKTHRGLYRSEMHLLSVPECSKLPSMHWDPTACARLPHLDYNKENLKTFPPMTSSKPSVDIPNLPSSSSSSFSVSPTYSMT
Source text: as §1

rat MuSK = target: T3, rat MuSK (rat, UniProt Q62838 22-494, limits assumed); experiment: Biacore, MuSK on chip, association pH 7.4, dissociation pH 5.5
T3 construct: Coated on Biacore chip (200RU) or ELISA plate
T3 sequence (looked up): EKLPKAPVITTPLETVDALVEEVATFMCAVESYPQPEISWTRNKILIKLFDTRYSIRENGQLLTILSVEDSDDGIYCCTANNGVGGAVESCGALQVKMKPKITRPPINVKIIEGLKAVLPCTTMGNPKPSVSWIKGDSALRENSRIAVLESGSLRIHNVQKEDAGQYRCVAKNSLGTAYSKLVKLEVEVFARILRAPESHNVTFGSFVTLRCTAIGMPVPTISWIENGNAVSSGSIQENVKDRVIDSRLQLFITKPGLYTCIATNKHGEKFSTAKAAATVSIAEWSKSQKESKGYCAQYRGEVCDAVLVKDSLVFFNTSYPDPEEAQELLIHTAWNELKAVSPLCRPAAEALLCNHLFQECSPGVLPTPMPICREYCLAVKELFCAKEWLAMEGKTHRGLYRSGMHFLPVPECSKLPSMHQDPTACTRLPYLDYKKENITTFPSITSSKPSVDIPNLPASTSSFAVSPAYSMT
Outline: (§2)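 MuSK was immobilized on the sensor chip at 200 RU, and antibody was injected at 66.7 nM. Association ran at pH 7.4 and dissociation at pH 5.5, and kinetic parameters were calculated from the sensorgrams.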

cynomolgus monkey MuSK = cynomolgus monkey MuSK (cynomolgus monkey, UniProt A0A2K5USF6 24-487); experiment: as above
Outline: as §2

mouse MuSK [2] = target: T1, mouse MuSK; experiment: as above
Outline: as §2

[3] = target: T4, hFz: Fz domain and C-terminal flanking sequence of human MuSK (K314-T495) with C-terminal Avi- and His6-tags (human, UniProt O15146 314-495, biotinylated in vitro using the BirA enzyme); experiment: bead-binding titration, Fab format: antigen immobilized on streptavidin beads, MFI by flow cytometry, curve is the 1:1 fit
T4 construct: also called human Fz; not shown: Avi- and His6-tags
T4 sequence: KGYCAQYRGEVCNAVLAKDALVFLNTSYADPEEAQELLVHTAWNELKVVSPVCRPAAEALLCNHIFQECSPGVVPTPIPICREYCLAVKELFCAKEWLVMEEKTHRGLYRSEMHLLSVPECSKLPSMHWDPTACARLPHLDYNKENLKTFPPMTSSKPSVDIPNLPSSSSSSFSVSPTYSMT

Sequence of cynomolgus monkey MuSK (A0A2K5USF6 entry or part of it): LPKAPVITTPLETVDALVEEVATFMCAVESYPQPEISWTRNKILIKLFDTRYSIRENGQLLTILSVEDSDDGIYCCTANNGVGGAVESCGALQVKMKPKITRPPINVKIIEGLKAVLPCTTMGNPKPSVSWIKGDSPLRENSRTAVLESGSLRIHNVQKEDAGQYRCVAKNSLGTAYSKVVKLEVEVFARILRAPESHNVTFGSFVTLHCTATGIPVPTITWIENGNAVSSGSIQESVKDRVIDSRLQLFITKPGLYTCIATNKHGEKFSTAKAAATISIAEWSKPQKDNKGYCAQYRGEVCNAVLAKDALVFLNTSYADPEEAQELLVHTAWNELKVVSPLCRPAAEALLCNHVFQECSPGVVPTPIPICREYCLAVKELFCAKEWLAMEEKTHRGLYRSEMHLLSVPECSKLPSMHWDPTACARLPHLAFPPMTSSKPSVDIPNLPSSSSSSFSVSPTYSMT

B1: 3B2 (antibody, V domains shown)
VH: ELQLVESGGGLVQPGGSLRLSCAASGFTFDDYGMSWVRQAPGKGLEWVSAIPWNGGSTYYKESVKGRFTISRDNAKKTLYLQMNSLKSEDTAVYYCAKRSGRIAFGALDAWGQGTLVTVSS
VL: QAVVTQEPSLSVSPGGTVTLTCGLSSGSVTSSNYPDWYQQTPGQAPRGLIYSTDSRHSGVPSRFSGSISGNKAALTITGAQSEDEADYYCGLYMYSGSKNYVFGGGTKLTVL
notes: human IgG1 with the LALA mutations (L234A, L235A); produced in HEK293 cells; also called 3B2 mAb; parental 3B2 Ab
A Kd (mouse MuSK [1]) of 0.134 nM, a Kd (human MuSK) of 0.145 nM and an R0 (rat MuSK) of 174 RU were found for B1 in this work. The koff (rat MuSK) was 0.0062 s⁻¹, the kon (rat MuSK) was 980000 M⁻¹ s⁻¹ and the R0 (cynomolgus monkey MuSK) was 149 RU. It also gave a koff (cynomolgus monkey MuSK) of 0.00317 s⁻¹, a kon (cynomolgus monkey MuSK) of 740000 M⁻¹ s⁻¹ and an R0 (mouse MuSK [2]) of 194 RU. It also gave a koff (mouse MuSK [2]) of 0.00296 s⁻¹ and a kon (mouse MuSK [2]) of 1.05e+06 M⁻¹ s⁻¹.

B2: X2 Fab (Fab, V domains shown)
VH: EVQLVESGGGLVQPGGSLRLSCAASGFTVSSSSIHWVRQAPGKGLEWVASISSSYGSTSYADSVKGRFTISADTSKNTAYLQMNSLRAEDTAVYYCARSEGDRYVSGYMGMDYWGQGTLVTVSS
VL: DIQMTQSPSSLSASVGDRVTITCRASQSVSSAVAWYQQKPGKAPKLLIYSASSLYSGVPSRFSGSRSGTDFTLTISSLQPEDFATYYCQQSGVWLITFGQGTKVEIK
notes: Fab format
For B2, the “EC50 (read off the curve)” value [3] was about 0.5 nM.

B3: X3 Fab (Fab, V domains shown)
VH: EVQLVESGGGLVQPGGSLRLSCAASGFTISSSSIHWVRQAPGKGLEWVASISSSSGYTYYADSVKGRFTISADTSKNTAYLQMNSLRAEDTAVYYCARSWYEMWMSGYFGFDYWGQGTLVTVSS
VL: B2 VL with G92S, V93S, W94S
notes: Fab format
With B3 the “EC50 (read off the curve)” value [3] was about 0.1 nM.
